Experimental data reported in patent US6017763.

What was measured:
[1] = target: pig neutrophil Gβγ-activated PI3K B (p120/p101 heterodimer) (porcine)
[2] = target: pig neutrophil Gβγ-activated PI3K A (p117/p101 heterodimer) (porcine)
[3] = target: Sf9-derived p101/p120 heterodimer ((EE)-p101 with 6×HIS-p120), formed in vivo by co-infection or reconstituted in vitro (porcine)
[4] = target: porcine 6×HIS-tagged p120, Sf9-derived (pAcHLT p120), uncleaved (porcine)
[5] = target: porcine twice-cut p120 (thrombin cleaved, lacking approximately 40 amino-terminal residues) (porcine)

In the case of “Gβγ subunits (purified G protein βγ subunits)”, the PI3K (lipid kinase) activity [1] is reported as > 100 ×, the PI3K (lipid kinase) activity [2] is reported as > 100 × and the PI3K activity [3] is reported as > 100 ×. For the same substance, the PI3K activity of free p120 [4] was 1.7 fold and the PI3K activity of thrombin cleaved p120 [5] was 2.5 fold.
